T1: RB (Homo sapiens, UniProt P06400)
T1 construct: coding region of RB cDNA was subcloned into pGEX-6P (Amersham/Pharmacia) for generation of GST-RB; made in house
T1 sequence (P06400 1-928): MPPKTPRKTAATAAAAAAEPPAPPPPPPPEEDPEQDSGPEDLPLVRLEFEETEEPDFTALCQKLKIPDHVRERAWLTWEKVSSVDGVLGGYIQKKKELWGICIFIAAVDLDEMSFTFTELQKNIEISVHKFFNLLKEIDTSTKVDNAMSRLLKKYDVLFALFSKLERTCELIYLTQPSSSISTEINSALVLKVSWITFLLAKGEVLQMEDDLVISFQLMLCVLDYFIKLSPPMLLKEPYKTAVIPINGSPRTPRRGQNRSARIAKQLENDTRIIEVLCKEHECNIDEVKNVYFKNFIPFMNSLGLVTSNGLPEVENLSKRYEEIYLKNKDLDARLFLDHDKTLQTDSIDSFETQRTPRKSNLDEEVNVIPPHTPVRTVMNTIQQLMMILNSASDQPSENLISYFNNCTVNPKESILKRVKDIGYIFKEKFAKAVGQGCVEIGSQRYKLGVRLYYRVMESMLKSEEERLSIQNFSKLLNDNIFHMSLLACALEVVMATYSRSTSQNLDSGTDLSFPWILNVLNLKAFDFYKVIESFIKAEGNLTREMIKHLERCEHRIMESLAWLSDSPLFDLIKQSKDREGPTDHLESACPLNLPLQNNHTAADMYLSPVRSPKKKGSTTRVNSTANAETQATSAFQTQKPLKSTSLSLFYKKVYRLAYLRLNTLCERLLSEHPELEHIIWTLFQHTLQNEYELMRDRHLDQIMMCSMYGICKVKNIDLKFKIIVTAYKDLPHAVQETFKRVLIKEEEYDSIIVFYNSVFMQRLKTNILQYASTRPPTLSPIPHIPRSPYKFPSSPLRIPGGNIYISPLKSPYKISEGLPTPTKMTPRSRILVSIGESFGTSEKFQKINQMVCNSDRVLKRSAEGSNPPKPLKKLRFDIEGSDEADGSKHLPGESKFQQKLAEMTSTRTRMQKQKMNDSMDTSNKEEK


Key:
[1] = molecular target: T1, RB; assay: In vitro binding assay with GST-RB; conditions: S35-labeled in vitro translated protein
Description: The crude cell lysate of the GST-fusion proteins was prepared and purified according to the manufacture's protocol (Amersham/Pharmacia). [^35S]-methionine-labeled protein was produced by in vitro transcription/translation using the TNT T7-coupled reticulocyte lysate system (Promega). [^35S]-methionine-labeled protein and GST-fusion protein bound to glutathione sepharose 4B beads were incubated in 500 μl of HNE buffer (50 mM Hepes, pH 7.8, 150 mM NaCl, 1 mM EDTA, 1 mM DTT, 1% NP40, and 1× protease inhibitor mix (Complete: Roche)) at 4° C. for 1 hour. Beads were washed four times with HNE buffer, and then analyzed on an SDS-PAGE gradient gel (4-15%). For the detection of endogenous PRMT-2 interaction with RB, MEFs were lysed with WCL buffer (50 mM Hepes, pH 7.8, 400 mM NaCl, 2 mM EDTA, 1 mM DTT, 0.2% NP40, 10% Glycerol, 20 mM α-glycerophosphate, 5 mM NaF, 0.1 mM NaVO4, and 1× protease inhibitor mix). Then, 1 mg of whole cell extracts were incubated with HNE buffer without DTT and 3 μg of antibodies as indicated. The immune complexes were isolated using protein G beads, and washed four times with HNE buffer. The precipitated protein was boiled with SDS-loading buffer and resolved on SDS-PAGE. For immunoprecipitation of HA-tagged protein, transfected cells were lysed with RIPA buffer (phosphate buffer saline containing 1% NP40, 0.5% sodium deoxycholate, 0.1% SDS, and 1× Complete), and 100 μg of whole cell lysates were immunoprecipitated with anti-HA antibodies and washed in RIPA buffer. Western blot analysis was performed as described in Tanner et al. (1998). Circ Res, 82, 396-403.
To test whether PRMT family members interact with RB, S^35-labeled in vitro translated PRMT1, PRMT2, PRMT3, and PRMT4 (CARM1) were incubated with GST-RB fusion proteins or control GST, and co-precipitated labeled proteins were resolved by SDS-PAGE. […] An equal amount of GST-RB and GST were loaded in each lane, verified by Coomassie staining (FIG. 8B).

[2] = tested on: HIV-1 LTR; assay: HIV-1 reporter transcription, transient co-transfection; assay type: cell-based, human; conditions: 293T cells, co-transfection
Description: Cell culture, transfection, and reporter gene assays. The E1A-transformed, human kidney cell line, 293, and NIH-3T3 cells were maintained in Dulbecco's Modified Eagle Medium (DMEM) supplemented with 10% fetal calf serum and penicillin-streptomycin at 37° C. in 5% carbon dioxide in tissue culture grade Petri dishes. PRMT-2−/− mouse embryo fibroblasts (MEFs) and wild type MEFs were prepared from day 13.5 embryos and maintained in DMEM supplemented with 10% fetal calf serum. MEFs at passage 4 were used in this experiment. Lipofectamine Plus™ reagent (Boehringer Mannheim) was used to transfect both 293 and NIH-3T3 cells according to directions from the manufacturer. […] TNF-α stimulation of cells was done using recombinant TNF-α (200 U/ml) for 12 hours. Transfected cells were harvested at 36 hours, and CAT activity was assayed on 10 to 100 μg of protein from whole cell extracts. CAT assays were performed essentially as described in Leung, K. & Nabel, G. J. Nature 333, 776-778 (1988). To analyze the κB-reporter activity in MEFs, cells were transfected with the reporter (2×kB-Luc) and PRL-TK vector (Promega) using FuGENE6 transfection reagent (Roche). Luciferase activity was analyzed by Dual-Luciferase Reporter Assay System (Promega).
To determine whether PRMT-1, 2 or 3 could affect NF-κB function, their potential to regulate effects on transcription of the human immunodeficiency virus type 1 (HIV-1) was examined. Transient co-transfections were performed using PRMT1, PRMT2 and PRMT3 expression plasmids with an HIV-1 reporter plasmid in the human renal epithelial cell line, 293T.
To determine its dependence on NF-κB, human immunodeficiency virus type 1 (HIV-1) reporter plasmids with wild-type (WT) or mutant (ΔκB) sites were co-transfected transiently with control or PRMT2 expression plasmids in the different cell lines. […] The KB effect was dose-dependent and was also observed with other inducers of NF-κB, including phorbol […] (PMA) (FIG. 2B, right panel).

[3] = tested on: E2F1; assay: E2F reporter assay (GAL4-E2F1 activator, luciferase); assay type: cell-based; conditions: U2OS cells, in the presence of the E2F1 activator
Description: HeLa cells, U2OS cells, and Saos2 cells were seeded at a density of 5×10^4 per well in 24-well plates. Cells were transfected 24 hours later with the indicated plasmid and with 20 ng of pRL-TK (Promega) as an internal control to normalize transfection efficiency. The amount of CMV promoter in the transfection was kept constant using empty vector. Cells were harvested at 30 or 36 hour after transfection and luciferase activity was analyzed by Dual-Luciferase Reporter Assay System (Promega). Luciferase activity was measured as a ratio of Firefly to Renilla. To study endogenous E2F activity in MEFs, PRMT-2^+/+ or PRMT-2^−/− MEFs were seeded at a density of 3×10^5 per well in 6-well plates. Cells were transfected 24 hours later with 3 μg of E2F4B-Luc and 10 ng of pRL-TK plasmid. Cells were harvested at 36 hour after transfection and analyzed for luciferase activity as described above.

| Molecule | binding to RB [1] | effect on transcription of the HIV-1 reporter plasmid [2] | E2F1 activity [3] |
| --- | --- | --- | --- |
| PRMT4: protein methyltransferase CARM1 (PRMT4) (protein) AAAAAAVGPGAGGAGSAVPGGAGPCATVSVFPGARLLTIGDANGEIQRHAEQQALRLEVRAGPDSAGIALYSHEDVCVFKCSVSRETECSRVGKQSFIITLGCNSVLIQFATPNDFCSFYNILKTCRGHTLERSVFSERTEESSAVQYFQFYGYLSQQQNMMQDYVRTGTYQRAILQNHTDFKDKIVLDVGCGSGILSFFAAQAGARKIYAVEASTMAQHAEVLVKSNNLTDRIVVIPGKVEEVSLPEQVDIIISEPMGYMLFNERMLESYLHAKKYLKPSGNMFPTIGDVHLAPFTDEQLYMEQFTKANFWYQPSFHGVDLSALRGAAVDEYFRQPVVDTFDIRILMAKSVKYTVNFLEAKEGDLHRIEIPFKFHMLHSGLVHGLAFWFDVAFIGSIMTVWLSTAPTEPLTHWYQVRCLFQSPLFAKAGDTLSGTCLLIANKRQSYDISIVAQVDQTGSKSSNLLDLKNPFFRYTGTTPSPPPGSHYTSPSENMWNTGSTYNLSSGMAVAGMPTAYDLSSVIASGSSVGHNNLIPLANTGIVNHTHSRMGSIMSTGIVQGSSGAQGSGGGSTSAHYAVNSQFTMGGPAISMASPMSIPTNTMHYGS | do not bind RB | failed to inhibit NF-κB transcription specifically | – |
| PRMT2(1-95&219-433): internal deletion of amino acid 96-218, deleting the AdoMet binding domain (protein) MATSGDCPRSESQGEEPAECSEAGLLQEGVQPEEFVAIADYAATDETQLSFLRGEKILILRQTTADWWWGERAGCCGYIPANHVGKHVDEYDPEDFEFMIESILYARDAWLKEDGVIWPTMAALHLVPCSADKDYRSKVLFWDNAYEFNLSALKSLAVKEFFSKPKYNHILKPEDCLSEPCTILQLDMRTVQISDLETLRGELRFDIRKAGTLHGFTAWFSVHFQSLQEGQPPQVLSTGPFHPTTHWKQTLFMMDDPVPVHTGDVVTGSVVLQRNPVWRRHMSVALSWAVTSRQDPTSQKVGEKVFPIWR | did not bind GST-RB | – | failed to repress E2F1 activity |
